The subject of one series is H1299 cells. Briefly: Lactate dehydrogenase (LDH) assay. It counts as cell-based, human. The following applies: 271 nM and 1.36 µM SaroL-1, 2 and 4 h. The method, then:
The human lung epithelial cell line H1299 (American Type Culture Collection, CRL-5803) was cultured in a complete medium, consisting of Roswell Park Memorial Institute (RPMI) medium supplemented with 10% fetal calf serum (FCS) and 2 mM L-glutamine at 37 °C and 5% CO2. Cells were stimulated with different concentrations of SaroL-1 in a complete medium for indicated time points.
This assay was used to monitor rapid changes in cell viability following the formation of pores induced by SaroL-1. Prior to running the assay, kit components were assembled according to CyQuant^TM LDH Cytotoxicity assay kit (Invitrogen—Thermo Fisher Scientific) manufacturer´s instructions. 1 × 10^4 cells per well were plated in 100 µL in triplicates in a 96-well plate with a flat bottom and allowed to adhere overnight. […] After 30 min\ of incubation at room temperature and in absence of light, 50 µL of Stop solution were added to each well and the absorbance of samples was recorded at 490 nm and 680 nm using a BioTek microplate reader. To determine LDH activity, the reference absorbance at […] (background) was subtracted from the 490 nm absorbance values before calculation of % cytotoxicity. % cytotoxicity was calculated according to the following formula = [SaroL-1-treated LDH activity − spontaneous LDH activity]/[maximum LDH activity − spontaneous LDH activity] × 100.

The nature of series [1]: Confocal imaging of SaroL-1 binding to lactosylceramide GUVs. The following applies: 200 nM labelled SaroL-1, Lac-cer GUVs. An excerpt: (§1) GUVs were composed of 1,2-dioleoyl-sn-glycero-3-phosphocholine (DOPC), cholesterol (both AvantiPolar Lipids, United States), Atto 647 N 1,2-dioleoyl-sn-glycero-3-phosphoethanolamine (DOPE; Sigma-Aldrich), and one of the following glycolipids at a molar ratio of 64.7:30:0.3:5. The glycolipids are globotriaosylceramide (Gb3, Matreya), FSL-Gb3 (Function-Spacer-Lipid with globotriaosyl saccharide), and corresponding FSL-isoGb3 (Function-Spacer-Lipid with iso-globotriaosyl saccharide) synthetized as previously described[84],[85], FSL-A(tri) (Function-Spacer-Lipid with blood group A trisaccharide; Sigma-Aldrich), FSL-B(tri) (Function-Spacer-Lipid with blood group B trisaccharide; Sigma-Aldrich) or lactosylceramide (LC, Sigma-Aldrich).
(§2) GUVs were prepared by the electroformation method as earlier described. Briefly, lipids dissolved in chloroform of a total concentration of 0.5 mg/mL were spread on indium tin oxid-covered (ITO) glass slides and dried in a vacuum for at least 1 h or overnight. […]
(§3) Samples of GUVs and SaroL-1 were imaged using a confocal fluorescence microscope (Nikon Eclipse Ti-E inverted microscope equipped with Nikon A1R confocal laser scanning system, 60x oil immersion objective, NA = 1.49 and four laser lines: 405 nm, 488 nm, 561 nm, and 640 nm). […]

A short description of series [2]: Confocal imaging of SaroL-1 binding to FSL-Gb3 GUVs. The note with it: 200 nM fluorescent-labelled SaroL-1, FSL-Gb3 GUVs.
Description: as §1, §2, §3

A short description of series [3]: Confocal imaging of SaroL-1 binding to FSL-A GUVs. The following applies: 200 nM SaroL-1, FSL-A GUVs.
Description: as §1, §2, §3

B1: SaroL-1: Recombinant pore-forming lectin of Salpingoeca rosetta (UniProt F2UID9, 329 amino acids) with β-trefoil and aerolysin-like domains (protein)
chain: MSSTFEPATDSPLPVPGVQYFLQHVQSGKYVHPHGGSDMPGNDTALVLHHGFDEKRDALRWVFVNDAENKHQLKHYSSGKFVHPKGGKVGKEATLVVHSSPGRPETMIEMVQEDGRTYLRHTDSDYYVHPHGGSPNPGDNTRLVYYSGYRPSLAFLAIPAETLFVDRIEIHQAQALESINTITSLSDEHRNDTDQPVQTSISVALEESLQDSAQLSFERCFGLKVGSEFEVGLPLVGKTKVSVQFSGSWKSSTIKGEVRTSAVKVQINEHVTIPPGKCVQIRIDTRRCTKTAPATMYLRTASGIEVQRETTVTSTYHYDQEVHVVPVTN
modifications: left off: His6, N-terminal, state not stated
notes: Recombinant pore-forming lectin of Salpingoeca rosetta (UniProt F2UID9, 329 amino acids) with β-trefoil and aerolysin-like domains
Take B1: the “LDH release / membrane damage (in words)” value in the series with H1299 cells is listed as “induced acute cytotoxicity”. In addition, the “binding to GUVs” value is listed as “very weak binding” in series [1], “Strong binding” in series [2] and “No binding” in series [3].

(Values after paper PMC9468336, “The choanoflagellate pore-forming lectin SaroL-1 punches holes in cancer cells by targeting the tumor-related glycosphingolipid Gb3” (Communications Biology, 2022).)
